Source: patent US20040063912A1
pKd: −log10 of the molar value.

Key:
[1] = target: purified, soluble huFcRn (human) (UniProt P55899); test: Biacore (SPR), purified soluble huFcRn
FcRn = test: assay not stated; compared with EPO-Fc with native Fc
EPO receptor (EpoR) = test: in vitro binding to EpoR; method not stated

IgG1 (antibody)
pKd [1]: 8.10

mutated EPO-Fc (Fc modified in three critical amino acid residues in the Fc domain: I253A, H310A, and H435A) (Fc fusion)
reduction in FcRn binding (FcRn): > 90%

native huEPO (from UniProt P01588 28-193) (ligand)
pKd (EPO receptor (EpoR)): 9.70
